Molecular target: TA-MUC1 (tumor-associated MUC1) on human tumor cells (human, UniProt P15941 24-1255, aberrant tumor-associated O-glycosylation)
Experiment: cell-based or functional assay

Chain of TA-MUC1 (tumor-associated MUC1) on human tumor cells (P15941 24-1255): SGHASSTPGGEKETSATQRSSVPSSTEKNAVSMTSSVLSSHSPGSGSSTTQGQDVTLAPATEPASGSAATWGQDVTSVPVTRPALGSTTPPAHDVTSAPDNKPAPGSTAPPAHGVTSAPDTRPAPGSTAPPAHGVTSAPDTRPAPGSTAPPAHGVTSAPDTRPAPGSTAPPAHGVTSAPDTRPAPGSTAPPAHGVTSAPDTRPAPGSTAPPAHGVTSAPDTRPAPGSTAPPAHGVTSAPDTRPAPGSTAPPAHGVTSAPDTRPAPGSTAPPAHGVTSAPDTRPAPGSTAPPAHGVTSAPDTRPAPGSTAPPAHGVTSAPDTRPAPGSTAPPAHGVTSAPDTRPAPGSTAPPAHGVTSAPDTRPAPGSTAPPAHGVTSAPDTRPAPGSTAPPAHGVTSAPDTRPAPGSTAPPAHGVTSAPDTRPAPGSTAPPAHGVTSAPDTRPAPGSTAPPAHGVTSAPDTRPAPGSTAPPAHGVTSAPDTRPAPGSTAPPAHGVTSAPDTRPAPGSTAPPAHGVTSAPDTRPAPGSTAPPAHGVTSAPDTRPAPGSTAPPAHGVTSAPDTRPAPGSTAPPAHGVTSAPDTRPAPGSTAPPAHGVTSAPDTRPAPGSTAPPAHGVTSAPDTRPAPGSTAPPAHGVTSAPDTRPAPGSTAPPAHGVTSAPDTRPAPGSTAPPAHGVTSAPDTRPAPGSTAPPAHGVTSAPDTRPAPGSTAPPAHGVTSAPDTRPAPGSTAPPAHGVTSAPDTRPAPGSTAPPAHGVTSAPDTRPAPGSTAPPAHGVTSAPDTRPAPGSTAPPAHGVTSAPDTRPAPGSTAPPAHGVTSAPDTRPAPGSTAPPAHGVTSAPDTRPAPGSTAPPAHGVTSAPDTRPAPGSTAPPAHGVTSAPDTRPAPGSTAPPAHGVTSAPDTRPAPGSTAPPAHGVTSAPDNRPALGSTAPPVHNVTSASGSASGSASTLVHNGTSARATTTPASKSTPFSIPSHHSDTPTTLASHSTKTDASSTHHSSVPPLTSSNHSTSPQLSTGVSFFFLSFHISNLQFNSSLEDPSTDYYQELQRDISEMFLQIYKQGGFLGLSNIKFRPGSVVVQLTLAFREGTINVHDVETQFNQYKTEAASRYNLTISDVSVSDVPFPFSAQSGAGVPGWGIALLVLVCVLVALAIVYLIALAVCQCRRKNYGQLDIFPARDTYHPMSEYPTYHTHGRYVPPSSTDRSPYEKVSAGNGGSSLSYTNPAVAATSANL

| Binder | IC50 of cytotoxic activity (cell viability, ATP assay, 6 days) on TA-MUC1 positive MDA-MB-468 cells [nM] | cytotoxic activity on HPAC and NCI-H441 cells, fold against PankoMab-ADC [fold] | potency ratio of PM-N54Q-ADC to PankoMab-ADC, cytotoxic activity on HPAC cells [ratio] | potency ratio of PM-N54Q-ADC to PankoMab-ADC, cytotoxic activity on NCI-H441 cells [ratio] |
| --- | --- | --- | --- | --- |
| PankoMab-ADC (antibody, human IgG1, kappa, V domains shown, drug-linker of Formula 2 bound by thioether bonds; drug-linker of Formula 2 (maleimide-GGFG linker with DXd/exatecan derivative) bound by thioether bonds; average approximately 8 drug molecules per antibody; Fab N-glycan on Asn54 (position 57)) VH: EVQLVESGGGLVQPGGSMRLSCVASGFPFSNYWMNWVRQAPGKGLEWVGEIRLKSNNYTTHYAESVKGRFTISRDDSKNSLYLQMNSLKTEDTAVYYCTRHYYFDYWGQGTLVTVSS VL: DIVMTQSPLSNPVTPGEPASISCRSSKSLLHSNGITYFFWYLQKPGQSPQLLIYQMSNLASGVPDRFSGSGSGTDFTLRISRVEAEDVGVYYCAQNLELPPTFGQGTKVEIKR | < 10 | – | – | – |
| PM-N54Q-ADC (antibody, human IgG1, kappa, V domains shown, drug-linker of Formula 2 bound by thioether bonds; drug-linker of Formula 2 (maleimide-GGFG linker with DXd/exatecan derivative) bound by thioether bonds; average approximately 8 drug molecules per antibody) VH: EVQLVESGGGLVQPGGSMRLSCVASGFPFSNYWMNWVRQAPGKGLEWVGEIRLKSNQYTTHYAESVKGRFTISRDDSKNSLYLQMNSLKTEDTAVYYCTRHYYFDYWGQGTLVTVSS VL: DIVMTQSPLSNPVTPGEPASISCRSSKSLLHSNGITYFFWYLQKPGQSPQLLIYQMSNLASGVPDRFSGSGSGTDFTLRISRVEAEDVGVYYCAQNLELPPTFGQGTKVEIKR | – | > 1.5 | 1.92 | 1.66 |
